# Measurements reported in publication doi:10.1101/2020.12.29.424758 (bioRxiv, 2020).
# B1: Fab2 (Fab, V domains shown)
# VH: EVQLVESGGGLVQPGGSLRLSCAASGFTIYSSSIHWVRQAPGKGLEWVASIYSSSGSTYYADSVKGRFTISADTSKNTAYLQMNSLRAEDTAVYYCARQSYSGLSPRRHWSYGAMDYWGQGTLVTVSS
# VL: DIQMTQSPSSLSASVGDRVTITCRASQSVSSAVAWYQQKPGKAPKLLIYSASSLYSGVPSRFSGSRSGTDFTLTISSLQPEDFATYYCQQIWSWPLITFGQGTKVEIK
# Molecular target: YiiP from S. oneidensis (wild-type) (S. oneidensis, UniProt Q8E919)
# Test: SEC
# YiiP from S. oneidensis (wild-type), sequence (Q8E919 whole entry): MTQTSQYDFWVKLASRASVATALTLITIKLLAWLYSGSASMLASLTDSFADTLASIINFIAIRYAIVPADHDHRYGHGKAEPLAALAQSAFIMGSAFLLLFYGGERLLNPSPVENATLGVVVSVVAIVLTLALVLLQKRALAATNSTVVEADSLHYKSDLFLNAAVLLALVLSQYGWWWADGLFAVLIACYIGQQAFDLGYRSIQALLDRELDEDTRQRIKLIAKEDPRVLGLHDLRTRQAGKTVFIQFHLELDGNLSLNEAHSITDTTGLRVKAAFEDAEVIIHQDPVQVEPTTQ
binder,measurement,value
B1,binding result,binds
